The values below are quoted from earlier work in publication PMC3128988.

As a reminder, the Kd is the free concentration of one partner at which half of the binding sites on the other are occupied at equilibrium, for simple one-to-one binding.

The target of this data set is CD47 (Homo sapiens) (UniProt Q08722).
UniProt Q08722, sequence (Q08722 19-323): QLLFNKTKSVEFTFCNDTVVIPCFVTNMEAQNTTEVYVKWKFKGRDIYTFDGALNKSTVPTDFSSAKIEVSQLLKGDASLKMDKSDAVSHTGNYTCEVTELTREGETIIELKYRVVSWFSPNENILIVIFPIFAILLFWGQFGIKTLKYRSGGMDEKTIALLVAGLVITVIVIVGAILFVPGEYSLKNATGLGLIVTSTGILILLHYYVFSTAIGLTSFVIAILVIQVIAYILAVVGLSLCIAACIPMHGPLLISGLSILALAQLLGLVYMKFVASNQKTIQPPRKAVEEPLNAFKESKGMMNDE

With SIRPα (from UniProt P78324), the Kd was 1000 nM.
